Test: soluble on expression in E. coli; label from the status in PepcDB or PDB records

Sequence	soluble on expression in E. coli
SLKPINYVPHFLCRISGEEINSISEIEFIKTLECLELSEGILRKINSLSADLTKDLHDCISLYKEQSISRVLINLKRDIFNMRFNRVQKYKLENISGFNHDKLNLWLNLAQEYQSTLHLMRETFKMEIQEKRGKLKQLFSNSEYIKAIQVSNTQLYENLLEYLQDNQSHPPKKMRNIEQSLINYLSRMIFKPTPFSSFTGLNYGFFSQEDSSFEINTKESKGHTRINMVYLKKIERMLLNRISIKNKCYVSLNQTINEEENYMFFRRGKDGTSQAFTGEAFIKIKKSELLKELIQYFEGISSMNIVEVVSFLSEKTNYETEALYNYLFKLEKMGVLDFSLGVSEQSDNYTKDLIENLLGIKDSLVEKSVSHLVEIEKIQAIFSESNYQKRYVLLKNLQEHIKKIYSLFDLKLESNDLTSLLFEDVSYKNTKIILNENQWKTHLDDFNLIKNLMPLFDDNILEKLSMNIIFKDIYGNKGAIDLLEFYREFNKYDKNLLWKKIRKNDTYLYLKKLRTEFYDYLETQINMGLDTIFLNKSWLKKFINKFPDLLKSKENYSFYFQIAYDNQDNRILVLNKIGPGLGKHFSRYGNLFLNSEYKENNRFINSLIEQYKKYDQNGGVLTDLNAVLGLNLNMHPNLLNYEITYPGCNPSKGINQVALKDIEVLYDSNSDQLKLYSKQYRQNVKLLPLGFLFPALSPSLYKFLCGFSESNGIEYSFWNKFLNEHNNNFSLLPRIMLGSVALDRRTWKINAKEIQKEFSKDTFETFINFHKWVKENQLPEDIFLRVANTMDAFSENELLNQDLGSWIAEIKQTKHRKPQYVNFNNYFHIDALRKIIKDVNNTVTIQEVYPHPDDVYYQKNSKKCVEFLVEVF	soluble
GSHMRSEFASGNTYALYVRDTLQPGMRVRMLDDYEEISAGDEGEFRQSNNGVPPVQVFWESTGRTYWVHWHMLEILGFEEDIEDMVEADEYQGAVASRVLGRALP	soluble
DTFIGWEPEVTHKKYFAMLDTISQVQGVPEPIIEAVAPLFFANNADQVHPELVASFKQSLESLTGERAVEVARIGRMVFGRRDVIEDAEKFALPTLIAVGREDKPRPVFESYLMHDCITGSELVEIPEAGHISSLEQPEFVNQMLLSFLNKVHA	not soluble
MSLHELKAAAFPQTTEKISPNWESGINVDLAISTRQYHMQQLFYRYGENNSLSVEGFRKLLQNIGIDKIKRIHIHHDHDHHSDHEHHSDHERHSDHEHHSDHEHHSDHNHAASGKNKRKALCPDHDSDSSGKDPRNSQGKGAHRPEHASGRRNVKDSVSASEVTSTVYNTVSEGTHFLETIETPRPGKLFPKDVSSSTPPSVTSKSRVSRLAGRKTNESVSEPRKGFMYSRNTNENPQECFNASKLLTSHGMGIQVPLNATEFNYLCPAIINQIDARSCLIHTSEKEGHHHHHH	not soluble
MTDTLLPAAPQPLEKEGDDYFRKGCNPLAQTGRSKLQNQRAALNQQILKAVRMRTGAENLLKVATNQKVREQVRLELSFVNSDLQMLKEELEGLNISVGVYQGTEEAFTIPLIPLGLKETKEVDFSIVFKDFILEHYSEDSYLYEDDIADLMDLRQACRTPSRDEAGVELLMSYFIQLGFVESRFFPPTRHMGLLFTWYDSFTGVPVSQQTLLLEKASVLFNIGALYTQIGTRCNRQTQAGLESAVDAFQRAAGVLNYLKETFTHTPSYDMSPAMLSVLVKMMLAQAQESVFEKVCLPGIQNEFFVLVKVAQEAAKVAEAYRQLHAAMSQEPVKENIPYSWASVAYVKAYHYGALAHYFAATLLIDHQLKPGADEDHQEKCLSQLYDRMPEGMTPLATLKNAGQRVLLGKGHLHRAIGFHEESLREANLCKKLRDIQVLRDVLSAAHQRTQLKHTQHREDDDLLNLIDAPDVLPKTEREVKITFPDFSKVTVTDFFQKLGPLSVFSASKRWSPPRGIHFTVEEGDLGFTLRGNTPVQVHFLDPHCSASLAGAKEGDYIVSIQGVDCKWLTVSEVMKLLKSFGGEEVEMKVVSLLDSTSSMHNKCATYSVGMQKTYSMICLSMDDDDKADKTKKISKKLSFLSWGTSKNRQKSASTLCLPEVGLARSQNKKKLPTPFSLLNSDSSLY	soluble
MGSDKIHHHHHHMDEIELRHILHMNPELSFKEYRTKETLRKAVIEIGYEKIIEVAGTGLVIEKKETEDPYVVLRADMDALPIKEETGWEFASRNEYMHACGHDFHMSALYGAMKRLRNVKKNFLFVFQPAEETGGGAKEVVDFLKDKYEIKAAVGFHVTDEYDAGTVASRPGVLFASATEFDVYFKGVPAHVAFAEKGKDALKAAVSFLGWLYNKKWNALVGVGKISGGRARNIVPDEIKLEGTIRSEALRITEEVISNMVKQLGELKEEMGVDFAVERGSVYPEVKVDQNLFETLRETCQRLGFSFVECDMKWTGEDFGYFSQVFPSLLFWFGVGEGERFGLHHPRFLPNDRYIPMAADLLAELAMVI	not soluble
MGTRSPHIVLRNATYLNSYIREWMQANIWIYDDRIIYVGEKLPEQLHECEVIDCDGKYVVPSYIEPHAHPYQLYNPETLANHAMQFGTTTFINDNLEHHHHHH	soluble
MVDAGLVLAAGFSRRFRGLLGVHKVAAGVRGYPLLCYPVTSLALAGVDRVFVVASQFNLNVVELVLGHCPFRVSGVLISSLSTLGNGFSLVEGLREAGLRGSRCLAVSMADHVYPPSIARRLIEAGCNTLGVDSRPRYIEVGEATHVSLEPGAGVRLGKDVEGCCVDIGIHTIEAGIASIGCIDLPPRGEASVSQLITCAARKGYTFKLVDVDGGPWMEVDSPEDLERLLQGDGLEVLEAVRSEWGFLEHHHHHH	not soluble
MRVLIRSSASGSEYWDTEEKRNVFVPKGQEPDFEVTENPESMLSKEADLHVGGLPITVGNVTIDTDGIKGERLLTTASAADDEEQDELVPSDDESVVLEEMNVKELREYAKRKGIEIPSAVRAKGEILNIIKESE	not soluble
MMELETGQCTIMELKKENVKELAQVFKTVAFKDTGTWHASEAGMKITVDDGSYQLASVFINPAFFSSFKVREEIVSMKISIKSISEFLSISENSSSSVKVSYPGMFQPVKMLVEDADGWVARGNFTTTLADQELDFEFDDAGVLATYLLKTQVLKEIIKDFDDTSRTVRIQFTKNSLCFTTFGDVGETTVSIPSRSLQMESVKCLEEVEFSYLLSLIQRMTTAFILATKLILRVDERGVLSCQFSIDHGEGNASYIEFLTVPADEEE	not soluble
MSLAKVFTQEEREKIKGQVVELVRQSGRETLRQLEVKTGATRYLMSVLARELVASGDVYNSGYGLFPSEQARKDWQNARKKLSRAKVKKPAVVDPDLIWSSPDGEIRRYDSRLNIICRECRKSEAMQRVLAFYQGNFQEAVLEGHHHHHH	not soluble
MGSSTGFHHADHVNYSSNLNKEEILEQLLLSYEGLSDGQVNWVCNLSNASSLIWHAYKSLAVDINWAGFYVTQASEENTLILGPFQGKVACQMIQFGKGVCGTAASTKETQIVPDVNKYPGHIACDGETKSEIVVPIISNDGKTLGVIDIDCLDYEGFDHVDKEFLEKLAKLINKSCVFK	soluble
MGSDKIHHHHHHMRKFKIPNMGALVAFEAAARHESFTHTAKELFLTESAVSRQIATLEASLGVRLFARVKQRVVLTRAGKLYGTQVRRALEALDRDTLSIIAHGSGGGYLELAVLPTFASHWLIPRIKSFYDRTPDVRVNMGSRTDLFSFEDTHFEAAIHYGKPTWPGTSSDYLFGEEVVPICSPALLDGPVERVEDLLAYPLLHSTTRPGAWAQWFETHGVEDIRTMQGVRYELHTMLISAAAAGLGIALVPKFFVEEQLQQLGLVVPCDAATVGDSAYYLVYPTELSHSKPLESFRAWLLEQASAYAAPGRDGEEDDLDAEDDEDVE	not soluble
SMTIGRAKVYATLSKIFYHLFYDEAIPKDCREIIEKFGEIDFNLRSVLVRELRGSVLIKDMPQSLAEVYESVMKDFYERYGFQASELHADHIAVELAFMSKLVEREISLAQQMKEEELYKIRAAQHRFIKAHLQPLVKNLPSAPLLNFVRDFVREDAKYLYSSLVGEKNEGADNN	soluble
MGSDKIHHHHHHMNSRTSFVSPDDRFSMVYFKMEHEGCWTGITKEHNIAIHTLKIIPLKDRNNIYGLFEIRAQGKKEFRDFLRRINREKTIHRVMAYSPSELRKNVYFIDLYEVYGGMIEGILNDYQSIFEYDVVRRGVEEKYAIIPSDRVLELKNSINGLGKIYQFKARCIKNFYYAFSPFLSYTPSEMQIIAEAVSRGYYSIPRHVGIRDLAEYFGMSKSTVQEYLRKAEQKTMNNLKLLKLMNEMKE	not soluble
